# Entries after “also recorded” stand apart in the source; their conditions may differ.
# What was measured:
# Format in all cases: cell-based
# [1] = biological target: T1, murine rIL-16 (Mus musculus, UniProt O54824); assay: murine rIL-16-stimulated murine splenocyte migration, modified Boyden chamber; details: for IL-16-inhibitory activity (block of murine rIL-16-stimulated murine splenocyte migration): peptide concentration not given
# T1 construct: polyhistidine fusion protein containing the 119 C-terminal residues encoded by the previously reported murine cDNA; polyhistidine (cleaved yes); made in house; host or cells: Escherichia coli strain HMS 174, vector pET16b
# T1 sequence (O54824 1204-1322): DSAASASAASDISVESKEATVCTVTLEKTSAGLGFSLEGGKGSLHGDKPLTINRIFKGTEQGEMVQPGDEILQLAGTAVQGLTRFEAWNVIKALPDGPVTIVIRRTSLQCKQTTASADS
# Protocol: (§1) Cell migration was assessed using a modified Boyden chamber. […] Cell migration is expressed as the mean % control migration.
# (§2) Results from multiple experiments were analyzed using Student's t test for paired variables, and Tukey's test for multiple variables. A P value<0.05 was considered significant.
# Peptide B (aa 341-352) includes the sequence WQCLLS (residues 344-349, SEQ ID NO:4) which is 100% conserved in all the species examined. Peptide A (aa 327-338) and peptide C (aa 351-362) correspond to the N-terminal and C-terminal flanks of peptide B, respectively. A random scrambled 12-residue peptide (LSKQKMVSREGT) designated peptide D (SEQ ID NO:20) was used a negative control for nonspecific effects of peptide administration on splenocyte motility. Criteria for the design of peptide D included overall hydrophilicity, neutral charge and no cysteine residues (to prevent possible dimer formation).
# Murine spleens were harvested from healthy 8-week male BALB/c mice (Jackson Laboratory). Splenocytes were isolated by grinding spleens between fiysted slides in M199 culture medium (M. A. Bioproducts), supplemented with 0.4% bovine serum albumin, 22 mM HEPES buffer, 100 with U/ml of penicillin, 100 μg/ml streptomycin (M199-HPS). Cells were washed and erytbrocytes were lysed in Gey's solution. Splenocytes were washed twice in M199, and resuspended to a final concentration of 2×10^6 cells/ml in RPMI1640 medium (BioWhittaker) supplemented with 10% FBS, 100 U/ml of penicillin and 100 μg/ml of streptomycin. By flow cytometry, 25% of the isolated splenocytes within the lymphocyte-cloud were CD4^+.
# Recombinant murine IL-16 was produced in Escherichia coli (strain HMS 174; Novagen) as a polyhistidine fusion protein containing the 119 C-terminal residues encoded by the previously reported murine cDNA (Keane et al., (1998) J. Immunol. 160: 5945-5954), using the bacterial expression vector pET16b (Novagen). The recombinant product corresponds to the secreted form of natural murine IL-16 following cleavage by caspase-3 (Zhang et al. (1998) J. Biol. Chem. 273:1144-1149). The rIL-16 was purified by metal chelation chromatography, and the polyhistidine tag was cleaved with factor Xa (New England Biolabs).
# [2] = biological target: T2, rIL-16 (Mus musculus, UniProt O54824); assay: IL-2R (CD25) induction on rIL-16-stimulated murine splenocytes, flow cytometry
# T2 construct: polyhistidine fusion protein containing the 119 C-terminal residues encoded by the previously reported murine cDNA; polyhistidine (cleaved yes); made in house; host or cells: Escherichia coli strain HMS 174, vector pET16b
# T2 sequence (O54824 1204-1322): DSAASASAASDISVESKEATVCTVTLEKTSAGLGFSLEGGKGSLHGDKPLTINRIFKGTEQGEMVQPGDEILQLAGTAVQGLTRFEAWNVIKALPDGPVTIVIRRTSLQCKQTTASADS
# Protocol: Induction of IL-2R (CD25) on rIL-16-stimulated murine splenocytes was detected by staining with FITC-conjugated anti-mouse IL-2R Ab (PharMingen). Cells were fixed with 10% formalin and stored at 4° C. in the dark before analysis with a Becton Dickinson FACScan 440 flow cytometer. The % IL-2R^+ cells was determined by subtracting the % isotype control positive from the total % positive events.
# Peptides A (SEQ ID NO:15) and C (SEQ ID NO:19) were inhibitory at 10^−7 M, but not 10^−6 M. The negative control peptide D (SEQ ID NO:20) (10^−6 M) had no effect on rIL-16-stimulated IL-2R expression.
# Murine splenocytes were incubated in control buffer, rIL-16 alone, or rIL-16 plus the indicated peptide. IL-2R expression was determined by flow cytometry using FITC-conjugated anti-IL-2R antibody. The % IL-2R^+ was determined by subtracting the FITC-conjugated isotype control antibody binding from the FITC-conjugated anti-IL-2R antibody binding. Isotype control antibody binding ranged from 1% to 4%.
# [3] = biological target: T1, murine rIL-16; assay: IL-16-stimulated T-lymphocyte migration, human CD4 D4 point mutants; details: human CD4 D4 wild type or point mutant, rIL-16 10^-9 M
# Protocol: Point mutations at Leu 348 and Leu 349 in human CD4 were prepared as follows.
# Initially 100 ng of wild type human CD4 cDNA (Richard Axel, Columbia University, N.Y.) contained within the mammalian expression vector pcDNA3.1(−) (Invitrogen, Carlsbad, Calif.) was subjected to the polymerase chain reaction (PCR) in the presence of 125 ng of each set of primer pairs. PCR conditions were as follows:
# The time for the elongation step varied according to the relationship of 2 minutes per kilobase of plasmid DNA length. The product was then subjected to restriction digestion with the enzyme Dpn for 1 h. at 37° C. Dpn is specific for methylated nucleotides and therefore will only cut the original wide type CD4-plasmid DNA. The transformation reaction required the addition of 1 μl of the digest to 50 μl of Epicurean Blue Eschericia coli which was incubated on ice for 30 min. and finally heat shocked 42° C., 45 sec to seal the supercompent bacteria. The resultant bacteria culture was selected on ampicillin plates and sequenced to confirm mutagenesis.
# as §1, §2
# (FIGS. 10A and 10B). […] (FIGS. 11A and 11B).
molecule,measurement,setting,value
"VVQVVA (OTHER INFORMATION: Description of Artificial Sequence:IL-16 antagonist peptide) [aa 333-338 of mouse CD4 D4, C-terminal half of peptide A]",synergistic activity with peptide B,"[1]; 6-residue peptide 10^-8 M combined with peptide B, data not shown",synergistic activity
same,inhibition of rIL-16-induced splenocyte migration,"[1]; peptide 10^-6 M, rIL-16 10^-9 M",inhibited rIL16-induced splenocyte migration
"LSKQKMVSREGT (OTHER INFORMATION: Description of Artificial Sequence:IL-16 antagonist peptide) [peptide D, random scrambled 12-residue peptide used as negative control, reference compound]",% IL-2R+ CELLS,"[2]; IL-16 + negative control peptide, 10^-6 M",37%
same,inhibition of IL-16-stimulated induction of IL-2R,[2]; peptide 10^-6 M,no effect
VSEEQK (OTHER INFORMATION: Description of Artificial Sequence:IL-16 antagonist peptide) [N-terminal half of peptide A],synergy when combined with peptide B,"[1]; concentration not given, data not shown",no synergy
same,IL-16-inhibitory activity (block of murine rIL-16-stimulated murine splenocyte migration),[1]; rIL-16 10^-9 M,no inhibitory activity
WQCLLS (OTHER INFORMATION: Description of Artificial Sequence:IL-16 antagonist peptide) [aa 344-349 of mouse CD4 D4],inhibition of IL-16 (splenocyte migration),"[1]; peptide 10^-7 M, rIL-16 10^-9 M",inhibited IL-16
VKQVVA (OTHER INFORMATION: Description of Artificial Sequence:IL-16 antagonist peptide) [aa 334 V:K substituted],reduction of IL-16-stimulated splenocyte migration in combination with peptide B,[1]; peptide 10^-6 M plus peptide B fixed 0.5×10^-8 M,reduced IL-16-stimulated splenocyte migration
same,reduction of IL-16-stimulated splenocyte migration in combination with peptide B,[1]; peptide 10^-7 M plus peptide B fixed 0.5×10^-8 M,reduced IL-16-stimulated splenocyte migration
VVQKVA (OTHER INFORMATION: Description of Artificial Sequence:IL-16 antagonist peptide) [aa 336 V:K substituted],block of IL-16-stimulated splenocyte motility in combination with peptide B,[1]; peptide 0.5×10^-6 M to 0.5×10^-9 M (any concentration) plus peptide B fixed 0.5×10^-8 M,did not block IL-16
"VAPETG (OTHER INFORMATION: Description of Artificial Sequence:IL-16 antagonist peptide) [aa 337-342, bridges peptide A and peptide B]",IL-16-inhibitory activity (block of murine rIL-16-stimulated murine splenocyte migration),[1]; rIL-16 10^-9 M,failure; also recorded: lacked inhibitory activity
WQALLS (OTHER INFORMATION: Description of Artificial Sequence:IL-16 antagonist peptide) [aa 346 C:A substituted],IL-16-inhibitory activity (block of murine rIL-16-stimulated murine splenocyte migration),[1]; rIL-16 10^-9 M,equally as effective as the native WQCLLS
WACLLS (OTHER INFORMATION: Description of Artificial Sequence:IL-16 antagonist peptide) [aa 345 Q:A substituted],IL-16-inhibitory activity (block of murine rIL-16-stimulated murine splenocyte migration),[1]; rIL-16 10^-9 M,failed to block IL-16
WQCELS (OTHER INFORMATION: Description of Artificial Sequence:IL-16 antagonist peptide) [aa 347 L:E substituted],IL-16-inhibitory activity (block of murine rIL-16-stimulated murine splenocyte migration),[1]; rIL-16 10^-9 M,failed to block IL-16
"rIL-16: recombinant murine IL-16, 119 C-terminal residues, produced in Escherichia coli (protein) DSAASASAASDISVESKEATVCTVTLEKTSAGLGFSLEGGKGSLHGDKPLTINRIFKGTEQGEMVQPGDEILQLAGTAVQGLTRFEAWNVIKALPDGPVTIVIRRTSLQCKQTTASADS",% IL-2R+ CELLS,"[2]; rIL-16 10^-9 M alone, no stimulation 24",36%
same,increase of basal IL-2R expression,"[2]; rIL-16 alone, murine splenocytes",50%
"NLTCEVWGPTSPKLMLSLKLENKEAKVSKREKAVWVLNPEAGMWQCLLSDSGQVLLESNIKVLPTWSTPVQPM (OTHER INFORMATION: Description of Artificial Sequence:IL-16 antagonist peptide, aa 302-374 of human CD4 D4) NLTCEVWGPTSPKLMLSLKLENKEAKVSKREKAVWVLNPEAGMWQCLLSDSGQVLLESNIKVLPTWSTPVQPM",inhibition of IL-16-stimulated T-lymphocyte migration,[3],IL-16-inhibitory activity
"… (OTHER INFORMATION: Description of Artificial Sequence:IL-16 antagonist peptide, human CD4 D4 with Isoleucine substituted at position 348) NLTCEVWGPTSPKLMLSLKLENKEAKVSKREKAVWVLNPEAGMWQCILSDSGQVLLESNIKVLPTWSTPVQPM",inhibition of IL-16-stimulated T-lymphocyte migration,[3],maintained partial ability to inhibit
same,inhibition of IL-16-stimulated T-lymphocyte migration,[3]; listed as Leucine 348 was conservatively substituted with Isoleucine,Partial inhibition
"NLTCEVWGPTSPKLMLSLKLENKEAKVSKREKAVWVLNPEAGMWQCSLSDSGQVLLESNIKVLPTWSTPVQPM (OTHER INFORMATION: Description of Artificial Sequence:IL-16 antagonist peptide, human CD4 D4 with leucine 348 to serine) NLTCEVWGPTSPKLMLSLKLENKEAKVSKREKAVWVLNPEAGMWQCSLSDSGQVLLESNIKVLPTWSTPVQPM",inhibition of IL-16-stimulated T-lymphocyte migration,[3],lost the ability to inhibit
same,inhibition of IL-16-stimulated T-lymphocyte migration,[3]; listed as human CD4 (L348→S),complete loss in inhibition
"NLTCEVWGPTSPKLMLSLKLENKEAKVSKREKAVWVLNPEAGMWQCLSSDSGQVLLESNIKVLPTWSTPVQPM (OTHER INFORMATION: Description of Artificial Sequence:IL-16 antagonist peptide, human CD4 D4 with leucine 349 to serine) NLTCEVWGPTSPKLMLSLKLENKEAKVSKREKAVWVLNPEAGMWQCLSSDSGQVLLESNIKVLPTWSTPVQPM",inhibition of IL-16-stimulated T-lymphocyte migration,[3],lost the ability to inhibit
same,inhibition of IL-16-stimulated T-lymphocyte migration,[3]; listed as human CD4 (L349→S),complete loss in inhibition

# Source: patent US6723697B2, “IL-16 antagonists” (Research Corporation Technologies, Inc., priority 1999, dated 2004)
